B1: 125I-CCL3, P10147 24-92 (ligand)
chain: SLAADTPTACCFSYTSRQIPQNFIADYFETSSQCSKPGVIFLTKRSRQVCADPSEEWVQKYVSDLELSA
modifications: ends and bridges not checked; also: 125I-labelled, site not given here

What was measured:
[1] = molecular target: CCR5 on HEK-R5 cells (HEK 293T cells stably expressing CCR5) (UniProt P51681); experiment: radioligand binding
[2] = molecular target: FLAG/SNAP-tagged wild-type (WT) CCR5, P51681; experiment: radioligand binding; details: remark: other sources report otherwise

| Molecule | Kd [1] [nM] | Kd [2] [nM] |
| --- | --- | --- |
| gp120 Bx08-sCD4 complex (from UniProt P01730) | 14.1 |  |
| B1 |  | 0.36 |
